This is an account of results in patent publication US20230242902A1, “A HIGHLY ERROR-PRONE […] R[…] FOR TARGETED CONTINUOUS EVOLUTION IN VIVO” (The Regents of the University of California, priority 2017, published 2023).

Where a chain is given by its changes, count along the chain named. Numbers in names are those of the source. ≈ marks a conversion by molar mass, not a printed value. Where “and” joins values, the source holds several entries; their conditions need not be identical. Equal entries are not always repeated.

Data set [1] can be described thus: Maximum soluble concentration in media. The format is physicochemical. As to conditions: yeast culture media, aqueous buffer.
The test system of the next data set is p2-encoded leu2*. The data set is described as follows: p2 leu2* fluctuation tests in GA-Y021 (p2 mutation rate reporter strain). Type of data set: cell-based, S. cerevisiae. As to conditions: GA-Y021, noncognate polymerase in trans, mutual orthogonality experiment. An excerpt: For fluctuation tests used to measure p2 mutation rates, leu2* served as a marker for detecting mutational events. leu2* is a disabled version of LEU2, where Q180 is replaced with a TAA stop codon. Q180 is a permissive site where mutation to any other codon other than TAG and TGA results in functional reversion to LEU2. These mutational events can be detected by plating scores of parallel cultures on medium lacking leucine and counting the number distribution of functional LEU2 mutants.
For TP-DNAP2 library screening, each library member was subjected to small-scale leu2* fluctuation tests with six replicates. 190 library members from each yeast library transformation were arrayed and inoculated into liquid SC medium lacking uracil and histidine, and passaged three times at 1:10,000 dilutions. mKate2 fluorescence was measured at every passage on a microplate reader (TECAN Infinite® 200 PRO, settings: λex=588, λem=633) to track p2 copy number stabilization. To perform fluctuation tests, each library member was diluted 1:10,000 into liquid SC medium buffered to pH 5.8 and lacking uracil, histidine, tryptophan, and dilutions were split into six 100 μL replicates. Cultures were grown for 48 hours at 30° C. to reach saturation. Saturated cultures were washed with 200 μL 0.9% NaCl to remove residual leucine and resuspended in 35 μL of 0.9% NaCl. 10 μL of this resuspension was spot plated onto solid SC medium buffered to pH 5.8 and lacking uracil, histidine, tryptophan and leucine. Spot plates were allowed to dry and incubated at 30° C. Colonies were counted after 5 days. Colony counts were used to calculate the expected number of LEU2 functional mutants (m), using the p0 method (Foster, 2006, Methods Enzymol, 409:195-213).
(§1) To precisely measure p1 and p2 per-base substitution mutation rates, several modifications were made to the small-scale protocol. First, 36 replicates were performed for reconfirmation of candidate TP-DNAP2 mutators, and 48 replicates for genomic and mutual orthogonality experiments. Titers were also determined for each strain after spot plating by pooling the residual volume from 4 replicates and plating dilutions on YPD. The expected number of LEU2 functional mutants (m) was determined by the Ma-Sandri-Sarkar maximum likelihood estimator (as calculated by the FALCOR tool and corrected for partial plating (Foster, 2006, Methods Enzymol, 409:195-213; Sarkar et al., 1992, Genetica, 85:173-179; Hall et al., 2009, Bioinformatics, 25:1564-1565). The mean mKate2 fluorescence was determined from 50,000 event counts on Attune™ NxT Flow Cytometer and converted to p2 copy number by using a calibration curve. To determine per-base substitution rates, the corrected m was normalized to the average cell titer, the p2 copy number, and the target size for functional leu2* reversion (2.33 bp). 95% confidence intervals were similarly scaled.
To identify error-prone TP-DNAP2s, a small library of TP-DNAP2s diversified at locations hypothesized to be responsible for DNAP fidelity was screened. […] Four distinct site-saturation mutagenesis libraries were generated, each diversifying S370, Y424, L474, or F882 in TP-DNAP2 encoded on pGA55-reTP-DNAP2. Due to unsuccessful attempts to generate a strain with a full deletion of p2-encoded TP-DNAP2 and simultaneous integration of mKate, URA3, and leu2*, each library was transformed into GA-Y021 for convenient screening. However, since GA-Y021 still encodes wt TP-DNAP2 on p2-delORF1-mUL*, p2 mutation rates measured in this format are the result of in tandem replication of p2 by wt TP-DNAP2 and each TP-DNAP2 variant encoded in trans. 6-fold coverage of each library was maintained by picking 190 yeast colonies and passaging under selection for URA3 to stabilize the copy number of p2-delORF1-mUL* in the presence of the newly introduced TP-DNAP2 variants. […]

The next data set relates to p1-encoded leu2*. The data set is described as follows: p1 leu2* fluctuation tests in AR-Y304 (p1 mutation rate reporter strain, mutual orthogonality). Conditions: AR-Y304, polymerase in trans. Type of data set: cell-based, S. cerevisiae.
Source text: Strains for testing mutual orthogonality were generated by transforming a panel of CEN6/ARS4 vectors encoding TP-DNAP1 or TP-DNAP2 variants into two base strains, AR-Y304 and GA-Y021. AR-Y304 (Ravikumar et al., 2014, Nature Chemical Biology, 10:175-177) contains recombinant p1 encoding mKate2, URA3 and leu2* without disturbing the native TP-DNAP1 ORF. Similarly, GA-Y021 encodes recombinant p2 that replaces ORF1 with mKate2, URA3 and leu2* without disturbing the native TP-DNAP2 ORF.
as §1
To test whether the replication mechanisms of p1 and p2 are mutually orthogonal in vivo, p1 and p2 mutation rates were measured in the presence of a panel of TP-DNAP1 and TP-DNAP2 variants with varying mutation rates. Changes in p1 or p2 mutation rate induced by TP-DNAP variants would therefore signal a degree of cross-replication between TP-DNAP1/p1 and TP-DNAP2/p2, if any. A panel of six polymerases was introduced on CEN6/ARS4 vectors into two separate base strains, AR-Y304 (p1 mutation rate reporter strain) and GA-Y021 (p2 mutation rate reporter strain), encoding mKate2, URA3, and leu2* on either p1 or p2, respectively. Included in this panel were TP-DNAP1^WT and two error-prone TP-DNAP1 variants found in previous screens: TP-DNAP1^1777K, L900S and TP-DNAP1^L477V, L640Y, I777K, W814N. Also included were TP-DNAP2^WT and the error-prone TP-DNAP2^S370Q and TP-DNAP2^Y424Q variants found in this work. In AR-Y304 and GA-Y021, both p1 and p2 still encode their native wt TP-DNAP's. Any contribution to replication by a third TP-DNAP encoded in trans is monitored by detecting changes in linear plasmid mutation rate. Importantly, these experiments afford each DNAP an opportunity to replicate its native plasmid and lose its attached TP, becoming “spent” and perhaps more likely to replicate its noncognate linear plasmid through DNAP exchange (Klassen and Meinhardt, 2007, Linear Protein-Primed Replicating Plasmids in Eukaryotic Microbes, in Microbial Linear Plasmids, pp 1 87-226. Springer, Berlin, Heidelberg). The presence of TP-DNAP1^WT or TP-DNAP2^WT in trans had no effect on their noncognate linear plasmids' mutation rate. […] Likewise, p1 mutation rate was unaltered in the presence of mutagenic TP-DNAP2^S370Q and TP-DNAP2^Y424Q, which increased p2 mutation rate by 29- and 16-fold, respectively (FIG. 9). Thus, TP-DNAP1 replicates p1 with at least 870-fold specificity over p2, while TP-DNAP2 targets p2 with at least 29-fold specificity over p1. The level of mutual orthogonality measured here is limited by the error-rates of DNAPs used, especially that of TP-DNAP2 variants.

For data set [2], the system named is p1-encoded leu2 (Q180*). Put plainly: qPCR measurement of p1-encoded leu2 (Q180*) copy number. Type of data set: cell-based, S. cerevisiae. Conditions: qPCR-determined p1 copy number, OR-Y24 strains. The protocol: A calibration curve was established to correlate p1 copy number, determined via quantitative PCR (qPCR), with fluorescence of p1-encoded mKate2 (Table 1). Five TP-DNAP1 variants representing a wide range of copy numbers were transformed into ORY24 and passaged until w.t. p1 was displaced. The five OR-Y24 strains were grown to saturation, diluted 1:10,000 to mimic p1 fluctuation tests, and grown in triplicate 100 μL cultures and duplicate 40 mL cultures. 100 μL saturated cultures were subject to fluorescence measurement of mKate2 (ex/em=561 nm/620 nm, bandwidth=15 nm) on a flow cytometer (Invitrogen Attune NxT). Whole-cell DNA extracts were prepared from 40 mL cultures and used as templates for qPCR measurement of p1-encoded leu2 (Q180*), as described previously (Ravikumar et al., 2014). p1-encoded LEU2 was PCR amplified with qPCR-Leu2F and qPCR Leu2R; and genomic LEU3 was PCR amplified with qPCR-Leu3F and qPCR-Leu3R using SyBR Green (Fisher Scientific) master mix.
Background: Quantitative PCR measures a nucleic acid by following its amplification.

A further data set deals with genomic URA3 gene. The data set is described as follows: Fluctuation tests of the genomic URA3 gene in the presence of TP-DNAP1 variants. The format is cell-based, S. cerevisiae. Conditions: URA3 locus, strain harbouring p1 and the TP-DNAP1 variant. How it is done:
Fluctuation tests of the genomic URA3 gene were performed to determine genomic per-base substitution rates, as previously described (Ravikumar et al., 2014). Fluctuation data were analyzed by the maximum likelihood method, as described for large-scale p1 fluctuation tests. Phenotypic mutation rates were divided by the target size for loss of function of URA3 via base pair substitution (Lang et al., 2008), to yield per-base substitution rates. 95% confidence intervals were similarly scaled by these factors. All data related to genomic URA3 fluctuation tests are fully described in Table 5.

The test system of data set [3] is p1-encoded leu2 (Q180*). Put plainly: Large-scale p1 fluctuation tests of p1-encoded leu2 (Q180*), per-base substitution rate. Type of data set: cell-based, S. cerevisiae. Conditions: per-base substitution rate, p1-encoded leu2 (Q180*), large-scale fluctuation test. In short, it runs like this:
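Yeast OR-Y24 carrying p1-encoded leu2 (Q180*) with individual TP-DNAP1 variants; 36-48 replicates (3-16 for highly error-prone variants), LEU2 revertants scored without leucine. Rates by maximum likelihood, normalized to cells per culture, p1 copy number (flow cytometry) and 2.33 reversion routes.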

What is called solubility is the concentration that dissolves in the medium under given conditions. In data set [1], `CCc1nc(N)nc(N)c1-c1ccc(Cl)cc1` [pyrimethamine] had a solubility of 3000 µM (≈ 746 µg/mL).

B1: I777K, L900S: TP-DNAP1 variant, encoded by SEQ ID NO:7 (protein, listed as Kluyveromyces lactis)
chain: MDYKDKALNDLRNVYADFDSLPLDFRQILIKDRATLLQKEDVEKKILERQEDAKKYAEYLKQSEIPERISLPNIKRHKGVSISFEETSEDMVLEPRPFIFDGLNIRCFRRETIFSLKNKILNMVKESSSFKNVSRQSVSFMYFKIFNKGKVIASTKSVNIYEDKIDERLEDLCNNFDDVLKKIIDVTYGYESLFVSETYSYVIFYAKSIYFPQPRCVNNWGNNIPNILTFDSFKLFTANKNNVSCIKQCSRFLWQKDFNTLEEMIEYKNGNICIVTPQLHINDVRDIKSFNDIRLYSESPIKTFSVIDNTITYLFYFKEHLGVIFNITKSRHDRRVTKFSPLSKFSDVKNITVCFDIESYFDPEKESNQVNIPFICCASIIYNKVIGNIVDFEGRDCVAQMIEYVVDICGELNISSVELIAHNGGGYDFHYILSSMYNPAAIKNILIRNNSFISFNFAHDGVKFSVKDSYSFLLCSLANASKAFLNEETFKKTDFPHHDLKTADDLYKVYKEWSSVNTEINHVVEKEKLLITSEHIVNFTKNDKSKTLIEWSKDYCRNDVLVLSKVWLEFKNAVEDIFNCELVDQTMTLAGLSYKLFQANMPFDVELRHPNKEDYFNMREALIGGRCISVNGIYKDVLCLDVKSLYPASMAFYDQPYGSFKRVSSRPKDELGIYYVRVTPNRNNKSNFFPIRSHNKITYNNFEESTYIAWYTNVDIDIGLSEGHNIEYIPFDSYGNIGYSWSKKGKIFEKYIKDVLYKLKIKYEKQNNKVKRNVIKKIMNSLWGKFAQKWVNFEYFIKSEDDIDFESEEAYKIWDTDFMLIKKIKESTYSSKPIQNGVFTLSWARYHMKSIWDAGAKEGAECIYSDTDSIFVHKEHFKKNAKFMLNGLKVPIIGSEVGQSELECEFDKLLCAGKKQYMGFYTYFQDGKPCIKEKKRFKGIPSNYIIPELYAHLLSGADKEAKIQFLKFRREWGSVKGYIENKTVKAT
Take B1: the “change in p2 mutation rate by TP-DNAP1” value in the data set on p2-encoded leu2* was “no statistically significant change”. Moreover, the “fold increase of p1 mutation rate” value in the data set on p1-encoded leu2* is 380 fold. For the same molecule, the “Average leu2 (Q180*) copy number per cell” value (“Average leu2 … per cell” below) in the data set on p1-encoded leu2 (Q180*) [2] was 22.5 and 38.6.

B2: I777K: TP-DNAP1 variant, encoded by SEQ ID NO:3 (protein)
chain: B1 chain with S900L
B2: in the data set on p1-encoded leu2 (Q180*) [2], the “Average leu2 … per cell” value was 45.8 and 54.1.

B3: L474W, L640Y, I777K, W814N: TP-DNAP1 variant, encoded by SEQ ID NO:9 (protein, listed as Kluyveromyces lactis)
chain: B1 chain with L474W, L640Y, W814N, S900L
For B3, in the data set on genomic URA3 gene, the “Yeast genomic substitution mutation rate” value is 2.17 × 10^−10 s.p.b. Besides, in the data set on p1-encoded leu2 (Q180*) [3], the “Mutation rate (s.p.b.)” value was 4.03 × 10^−6 s.p.b. and 2.74 × 10^−6 s.p.b. The “Average leu2 … per cell” value with p1-encoded leu2 (Q180*) [2] (L640Y, I777K) is 8.63 and 11.1.
